Results on 5 molecules are retold here after US11472877 (Alector, dated 2022).

B1: T1-31 (antibody, IgG1, V domains shown)
VH: QLQLQESGPGLVKPSETLSLTCTVSGGSISSSSYYWGWIRQPPGKGLEWIGSIYYSGSTYYNPSLKSRVTISVDTSKNQFSLKLSSVTAADTAVYYCARDRRMWDPYGMDVWGQGTTVTVSS
VL: DIQMTQSPSSLSASVGDRVTITCQASQDISNYLNWYQQKPGKAPKLLIYDASNLETGVPSRFSGSGSGTDFTFTISSLQPEDIATYYCQQYDDFPPITFGGGTKVEIK
notes: huIgG1; also called TI-31
B2: T1-30 (antibody, IgG1, V domains shown)
VH: QLQLQESGPGLVKPSETLSLTCTVSGGSISSSSYYWGWIRQPPGKGLEWIGSIYYSGSTYYNPSLKSRVTISVDTSKNQFSLKLSSVTAADTAVYYCARGRKAAAGIDEAEYFQHWGQGTLVTVSS
VL: DIQMTQSPSSVSASVGDRVTITCRASQGISSWLAWYQQKPGKAPKLLIYAASSLQSGVPSRFSGSGSGTDFTLTISSLQPEDFATYYCQQVISFPTFGGGTKVEIK
notes: huIgG1; also called TI-30
B3: T1-80 (antibody, IgG1, V domains shown)
VH: QVQLVESGGGVVQPGRSLRLSCAASGFTFSSYGMHWVRQAPGKGLEWVALIWYDGSNKYYADSVKGRFTISRDNSKNTLYLQMNSLRAEDTAVYYCARELIVGATGGLTYYYGMDVWGQGTTVTVSS
VL: EIVMTQSPATLSVSPGERATLSCRASQSVGSNLAWYQQKPGQAPRLLIYGASTRATGIPARFSGSGSGTEFTLTISSLQSEDFAVYYCQQDHDRPLTFGGGTKVEIK
notes: huIgG1; also called TI-80; ADI-19159
B4: T1-54 (antibody, IgG1, V domains shown)
VH: QVQLVQSGAEVKKPGSSVKVSCKASGGTFSSYAISWVRQAPGQGLEWMGGIIPIFGTANYAQKFQGRVTITADESTSTAYMELSSLRSEDTAVYYCARHWYALGSFDIWGQGTMVTVSS
VL: EIVMTQSPATLSLSPGERATLSCRASQSVSSYLAWYQQKPGQAPRLLIYDSSNRATGIPARFSGSGSGTDFTLTISSLEPEDFAVYYCQQHDVWPITFGGGTKVEIK
notes: huIgG1; also called TI-54; ADI-19129
B5: T1-32 (antibody, IgG1, V domains shown)
VH: QLQLQESGPGLVKPSETLSLTCTVSGGSISSSSYYWGWIRQPPGKGLEWIGSIYYSGSTYYNPSLKSRVTISVDTSKNQFSLKLSSVTAADTAVYYCARDAPAVVGESPAFDIWGQGTMVTVSS
VL: DIQMTQSPSSLSASVGDRVTITCRASQSISRYLNWYQQKPGKAPKLLIYAASSLQSGVPSRFSGSGSGTDFTLTISSLQPEDFATYYCQQSLDLPFTFGGGTKVEIK
notes: huIgG1; also called TI-32

One experiment addresses T1, mouse TREM2 on BWZ cells (mouse, UniProt Q99NH8 19-227).
T1 construct: whole, on cells; also called BWZ Mouse TREM2
T1 sequence (looked up): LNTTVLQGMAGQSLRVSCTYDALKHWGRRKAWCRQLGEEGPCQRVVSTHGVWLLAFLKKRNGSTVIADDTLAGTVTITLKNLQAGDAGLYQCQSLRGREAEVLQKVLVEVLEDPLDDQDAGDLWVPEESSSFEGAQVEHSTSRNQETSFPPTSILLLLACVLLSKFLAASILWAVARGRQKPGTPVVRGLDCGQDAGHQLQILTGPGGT
The experiment is described as follows: FACS, BWZ mouse TREM2. On the technique in general: A flow cytometer gives signals particle by particle.
For B1, the “FOB Fold Over Background” value was found to be 0.9 fold.

Turning to B2, the “FOB Fold Over Background” value came out at 0.8 fold.

As to B3, the “FOB Fold Over Background” value is 0.9 fold.

Turning to B4, the “FOB Fold Over Background” value came to 1.2 fold.

Regarding B5, the “FOB Fold Over Background” value was 1.2 fold.

The target of a further experiment is T2, mouse TREM1 on CHO cells (mouse, UniProt Q9JKE2 21-230).
T2 construct: also called CHO-mT1
T2 sequence: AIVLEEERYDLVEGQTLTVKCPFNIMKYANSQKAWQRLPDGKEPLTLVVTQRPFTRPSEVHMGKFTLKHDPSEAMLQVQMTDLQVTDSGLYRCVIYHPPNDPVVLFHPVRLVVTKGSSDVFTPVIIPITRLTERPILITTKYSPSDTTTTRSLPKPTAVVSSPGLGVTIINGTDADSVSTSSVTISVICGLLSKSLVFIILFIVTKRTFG
Nature of the experiment: FACS, CHO mouse TREM1.
With B1, the “FOB Fold Over Background” value amounted to 447 fold.

Turning to B2, the “FOB Fold Over Background” value was determined as 453 fold.

Consider B3, for which the “FOB Fold Over Background” value is 1.2 fold.

Consider B4, for which the “FOB Fold Over Background” value stood at 3.1 fold.

As for B5, the “FOB Fold Over Background” value turned out to be 380 fold.

A further experiment addresses T3, human TREM2 on BWZ cells (human, UniProt Q9NZC2 19-230).
T3 construct: whole, on cells; not tied to the cell line; also called BWZ Human TREM2
T3 sequence (looked up): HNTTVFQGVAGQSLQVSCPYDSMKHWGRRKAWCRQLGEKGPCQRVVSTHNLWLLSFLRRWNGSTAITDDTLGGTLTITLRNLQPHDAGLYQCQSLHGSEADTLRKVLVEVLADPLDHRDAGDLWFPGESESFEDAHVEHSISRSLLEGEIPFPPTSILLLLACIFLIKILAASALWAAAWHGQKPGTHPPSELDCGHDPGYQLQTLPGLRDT
The experiment is described as follows: FACS, BWZ human TREM2.
B1: the “FOB Fold Over Background” value was found to be 0.5 fold.

Turning to B2, the “FOB Fold Over Background” value was 0.5 fold.

As to B3, the “FOB Fold Over Background” value is 1 fold.

With B4, the “FOB Fold Over Background” value is 1.1 fold.

For the molecule B5, the “FOB Fold Over Background” value amounted to 0.9 fold.

The next experiment concerns the target T1, mouse TREM2 on BWZ cells. The experiment is described as follows: FACS, BWZ cells.
On to B1, for which the binding result is on record as “no binding”.

For B2, the binding result is given as “no binding”.

As to B3, the binding result was “no binding”.

In the case of B4, the binding result is listed as “no binding”.

Consider B5, for which the binding result is given as “no binding”.

Another experiment deals with T3, human TREM2 on BWZ cells. The experiment is described as follows: FACS, BWZ cells.
On to B1, for which the binding result was “no binding”.

On to B2, for which the binding result is “no binding”.

On to B3, for which the binding result is given as “no binding”.

B4: the binding result is recorded as “no binding”.

Turning to B5, the binding result was “no binding”.
